{"source": "paper PMC6506533", "about": "“Initial state of DNA-Dye complex sets the stage for protein induced fluorescence modulation”", "target": "FEN1 (human, UniProt P39748 1-380)", "sequence (P39748 whole entry)": "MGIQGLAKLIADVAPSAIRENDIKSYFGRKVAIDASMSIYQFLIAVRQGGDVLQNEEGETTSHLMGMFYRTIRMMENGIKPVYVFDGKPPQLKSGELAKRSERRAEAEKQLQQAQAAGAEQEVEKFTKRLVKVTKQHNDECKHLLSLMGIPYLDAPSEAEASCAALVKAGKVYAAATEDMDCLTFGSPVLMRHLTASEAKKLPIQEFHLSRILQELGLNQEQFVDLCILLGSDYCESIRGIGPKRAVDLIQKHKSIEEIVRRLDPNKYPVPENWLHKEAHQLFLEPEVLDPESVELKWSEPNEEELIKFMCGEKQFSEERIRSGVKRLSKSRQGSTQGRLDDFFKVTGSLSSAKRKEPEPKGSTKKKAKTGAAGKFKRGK", "assay": "fluorescence anisotropy; rotational correlation time decreases on binding; RPA reaction buffer with 50 mM KCl or FEN1 reaction buffer (full composition not in material); steady-state measurements at room temperature; proteins in excess over Kd (Kd stated only as low nM)", "settings": "protein: recombinant; tags: none left (His6-SUMO cleaved); label: 5' flap tip pCy3; nicked double flap: 3 strands, 5' flap 4 nt, 3' flap 1 nt", "data": [{"binder": "DF-4,1 pCy3 (structured_DNA) DNA 1: GATGACGAGCAGTCCTAACTGGAAATCTAGCTCTGTGGAG DNA 2: CTCCACAGAGCTAGATTTCCC DNA 3: TTTAAGTTAGGACTGCTCGTCATC", "values": [{"measurement": "binding result", "result": "binds"}]}]}
